In one assay the target is T1, human DLL3 (Homo sapiens, UniProt Q9NYJ7).
T1 construct: purchased ACRO DLL3-H52H4
T1 sequence (Q9NYJ7 27-492 limits assumed): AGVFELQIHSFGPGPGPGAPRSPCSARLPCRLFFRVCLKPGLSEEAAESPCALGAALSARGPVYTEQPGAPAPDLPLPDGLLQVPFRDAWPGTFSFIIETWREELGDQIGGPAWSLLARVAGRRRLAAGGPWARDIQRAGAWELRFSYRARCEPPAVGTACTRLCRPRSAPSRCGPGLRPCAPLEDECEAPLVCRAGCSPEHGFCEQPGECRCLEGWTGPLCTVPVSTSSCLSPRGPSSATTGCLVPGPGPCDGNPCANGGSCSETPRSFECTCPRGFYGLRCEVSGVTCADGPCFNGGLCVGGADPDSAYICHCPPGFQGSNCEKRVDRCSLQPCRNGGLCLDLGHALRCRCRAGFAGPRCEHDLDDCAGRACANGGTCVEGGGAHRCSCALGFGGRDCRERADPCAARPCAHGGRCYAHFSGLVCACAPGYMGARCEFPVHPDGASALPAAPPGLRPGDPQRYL
In words: Biacore antibody affinity assay, human DLL3. The assay is classed as binding. The text has this:
(§1) Test antibodies were affinity-captured with a Protein A biosensor chip (Cat. #29127556, Cytiva) for 18 seconds, and then the antigens human DLL3 (ACRO, DLL3-H52H4), cynomolgus monkey DLL3 (KACTUS, DLL-RM103), and mouse DLL3 (KACTUS, DLL-MM103) were allowed to flow over the surface of the chip for 180 seconds, followed by 600 seconds of dissociation. Reaction signals were detected in real time using a Biacore 8K (Cytiva) instrument to obtain association and dissociation curves. After the dissociation in each experimental cycle, the biosensor chip was washed and regenerated with a 10 mM glycine-hydrochloric acid solution (pH 1.5) (Cat. #BR-1003-54, Cytiva). A 1:1 model was fit to the data. The results are shown in Table 12-1, Table 12-2, and Table 12-3.
Background: SPR reads the build-up and loss of mass on a sensor chip optically.

For assay [1], the target named is T2, Human DLL3 full-length protein on cells (human, UniProt Q9NYJ7 27-618).
T2 construct: H1184 and DMS53 express DLL3 themselves; The cell line is named under assay; also called H1184 cells; DLL3/H82
T2 sequence: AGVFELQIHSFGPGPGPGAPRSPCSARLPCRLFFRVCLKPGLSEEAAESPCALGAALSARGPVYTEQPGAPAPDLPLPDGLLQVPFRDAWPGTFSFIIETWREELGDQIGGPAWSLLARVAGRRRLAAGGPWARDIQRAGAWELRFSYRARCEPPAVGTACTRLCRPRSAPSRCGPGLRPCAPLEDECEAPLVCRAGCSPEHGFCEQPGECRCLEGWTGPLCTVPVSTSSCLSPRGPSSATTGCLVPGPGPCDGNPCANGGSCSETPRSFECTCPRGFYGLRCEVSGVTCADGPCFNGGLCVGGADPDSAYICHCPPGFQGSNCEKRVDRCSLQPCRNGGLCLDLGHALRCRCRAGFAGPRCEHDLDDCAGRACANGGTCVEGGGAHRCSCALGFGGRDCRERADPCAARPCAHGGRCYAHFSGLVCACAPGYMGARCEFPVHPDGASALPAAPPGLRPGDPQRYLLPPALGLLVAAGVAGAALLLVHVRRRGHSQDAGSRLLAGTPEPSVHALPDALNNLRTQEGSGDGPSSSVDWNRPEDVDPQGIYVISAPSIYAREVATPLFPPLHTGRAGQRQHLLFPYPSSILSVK
In words: FACS on DLL3/H82 cells. The protocol: Cells of the DLL3-expressing small cell lung cancer cell lines H1184 (ATCC, Cat. No. CRL-5858), DLL3/H82, cynoDLL3/CHO-s, and RatDLL3/CHO-s were suspended at 1×10^6/mL in FACS buffer (1% BSA+pH 7.4 PBS), and the cell suspensions were added to a 96-well round-bottom plate (Corning, 3795) at 100 μL/well. The plate was centrifuged at 300 g for 5 min, and the supernatant was removed. Different concentrations of test antibodies were added at 100 μL/well. The plate was incubated in the dark in a refrigerator at 4° C. for 1 h. After 3 washes by centrifugation at 300 g, working concentrations of APC anti-human IgG Fc (BioLegend, 410712) or PE F(ab′)2-goat anti-human IgG (invitrogen, H10104) were added. The plate was incubated in the dark in a refrigerator at 4° C. for 40 min. After 3 washes by centrifugation at 300 g, the geometric mean fluorescence intensity was measured on an Invitrogen flow cytometer, and the EC50 values of the antibodies in binding to DLL3-expressing cells were calculated.

Assay [2] deals with T3, human DLL3 (ACRO, DLL3-H52H4) (human, UniProt Q9NYJ7 27-479).
T3 construct: bought antigen of the Biacore assay; construct not described
T3 sequence (looked up): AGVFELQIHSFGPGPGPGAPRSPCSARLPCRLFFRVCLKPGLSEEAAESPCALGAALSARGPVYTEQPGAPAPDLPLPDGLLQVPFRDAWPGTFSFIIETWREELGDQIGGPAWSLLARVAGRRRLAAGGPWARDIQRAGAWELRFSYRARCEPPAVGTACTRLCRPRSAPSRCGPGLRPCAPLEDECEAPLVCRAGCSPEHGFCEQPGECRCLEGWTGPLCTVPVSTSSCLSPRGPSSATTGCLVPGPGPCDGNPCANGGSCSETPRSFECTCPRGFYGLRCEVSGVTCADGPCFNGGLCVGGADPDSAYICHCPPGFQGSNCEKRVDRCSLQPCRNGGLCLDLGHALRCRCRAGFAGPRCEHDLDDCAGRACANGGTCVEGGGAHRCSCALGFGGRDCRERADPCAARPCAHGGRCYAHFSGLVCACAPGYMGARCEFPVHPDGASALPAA
In words: SPR (Biacore 8K), antibody captured on Protein A chip, 1:1 fit.
Description: as §1

Where a chain is given by its changes, count along the chain named.

Here are results for 13 molecules from patent US20250057968A1, “ANTI-DLL3 ANTIBODY AND PHARMACEUTICAL USE THEREOF, AND ANTIBODY-DRUG CONJUGATE CONTAINING ANTI-DLL3 ANTIBODY” (Jiangsu Hengrui Pharmaceuticals Co., Ltd., priority 2021, published 2025).

B1: hAb6L3H2: humanized antibody of mAb6: hAb6VH2 (SEQ ID NO: 33) + hAb6VL3 (SEQ ID NO: 47), constant regions SEQ ID NO: 28/29 (antibody, V domains shown)
VH: EVQLVQSGAEVKKPGASVKVSCKASGYTFTDYYMNWVRQAPGQRLEWMGIINPYSGVTIYNHKFKGRVTLTVDKSANTAYMELSSLRSEDTAVYYCARQDSLLDYAMDYWGQGTTVTVSS
VL: DIQMTQSPSSLSASVGDRVTITCHASQGISGNMGWLQQKPGKSFKGLIYHGANLEDGVPSRFSGSGSGADYTLTISSLQPEDFATYYCVQYAQFPYTFGGGTKVEIK
modifications: constant regions SEQ ID 28/29; hAb6 VH2; hAb6 VL3
As to B1, in the assay with human DLL3, the “ka” value came out at 716000 M⁻¹ s⁻¹ and the “kd” value is 0.00114 s⁻¹.

B2: hAb6L4H6: humanized antibody of mAb6: hAb6VH6 (SEQ ID NO: 37) + hAb6VL4 (SEQ ID NO: 48), constant regions SEQ ID NO: 28/29 (antibody, V domains shown)
VH: EVQLVQSGSELKKPGASVKVSCKASGYTFTDYYMNWVRQAPGQGLEWMGIINPYSGVTIYNHKFKGRFVLSVDKSSNTAYLQISSLKAEDTAVYYCARQDSLLDYAMDYWGQGTTVTVSS
VL: B1 VL with S43A, F44P, T85D
modifications: constant regions SEQ ID 28/29; hAb6 VH6; hAb6 VL4
Consider B2, for which, in the assay with human DLL3, the “ka” value was 1.91e+06 M⁻¹ s⁻¹ and the “kd” value is 0.000811 s⁻¹.

B3: hAb6L4H11: humanized antibody of mAb6: hAb6VH11 (SEQ ID NO: 42) + hAb6VL4 (SEQ ID NO: 48), constant regions SEQ ID NO: 28/29 (antibody, V domains shown)
VH: B2 VH with R38K
VL: B1 VL with S43A, F44P, T85D
modifications: constant regions SEQ ID 28/29; hAb6VH11; hAb6 VL4
As to B3, in the assay with human DLL3, the “ka” value came out at 2.14e+06 M⁻¹ s⁻¹ and the “kd” value came to 0.000672 s⁻¹.

B4: hAb6L3H3: humanized antibody of mAb6: hAb6VH3 (SEQ ID NO: 34) + hAb6VL3 (SEQ ID NO: 47), constant regions SEQ ID NO: 28/29 (antibody, V domains shown)
VH: B1 VH with M48I, V68A
VL: B1 VL
modifications: constant regions SEQ ID 28/29; hAb6 VH3; hAb6 VL3
Consider B4, for which, in the assay with human DLL3, the “ka” value was determined as 718000 M⁻¹ s⁻¹ and the “kd” value amounted to 0.00135 s⁻¹.

B5: hAb6L4H4: humanized antibody of mAb6: hAb6VH4 (SEQ ID NO: 35) + hAb6VL4 (SEQ ID NO: 48), constant regions SEQ ID NO: 28/29 (antibody, V domains shown)
VH: B1 VH with Q43K
VL: B1 VL with S43A, F44P, T85D
modifications: constant regions SEQ ID 28/29; hAb6 VH4; hAb6 VL4
Regarding B5, in the assay with human DLL3, the “ka” value was 743000 M⁻¹ s⁻¹ and the “kd” value is 0.00108 s⁻¹.

B6: hAb100L1H2 (antibody, human IgG1, kappa, V domains shown)
VH: EVQLVESGGGLVKPGGSLRLSCAASGFTFSDSGMHWIRQAPGKGLEWVAYISSGSSTIHYADTVKGRFTISRDNAKNSLYLQMNSLRAEDTAVYYCASPLYYYGRSYNAVAYWGQGTTVTVSS
VL: DIQMTQSPSSLSASVGDRVTITCHASQNINVWLSWYQQKPGKVPKLLIYKASDLHTGVPSRFSGSGSGTDFTLTISSLQPEDVATYYCQQGQSYPLTFGGGTKVEIKR
For orientation: EC50 means the concentration that produces a half-maximal response. Higher therefore signals a need for much substance. The Kd is the free concentration of one partner at which half of the binding sites on the other are occupied at equilibrium, for simple one-to-one binding. The low end stands for higher affinity, the high end for lower affinity. As a reminder, the koff is a measure of how fast the partners let go of each other. Low readings indicate slow dissociation, high ones fast dissociation. Usually kon stands for a measure of how fast the partners come together. Higher therefore signals faster complex formation. Consider B6, for which, in assay [1], the response was half-maximal at 0.3 nM (EC50) and the Emax is 14800. In assay [2], this molecule showed a dissociation constant Kd of 0.467 nM, an off-rate constant (koff) of 0.000365 s⁻¹ and an association rate constant (kon) of 781000 M⁻¹ s⁻¹.

B7: M100CHI (antibody, human IgG1, kappa, V domains shown)
VH: B6 VH with R19K, G42E, S78T, Y80F, N84T, A88S, V93M, T118S
VL: B6 VL with T5N, V15L, R18T, V19I, K42N, V43I, D70G, V83I, V104L
notes: murine variable regions on human IgG1 / kappa constant regions; also called chimeric antibody of mAb100
In assay [1], B7 came in with an EC50 of 0.25 nM and an Emax of 13500. In assay [2], this molecule had a dissociation constant Kd of 0.528 nM, an off-rate (koff) of 0.000546 s⁻¹ and a kon of 1.03e+06 M⁻¹ s⁻¹.

B8: hAb100L2H2 (antibody, human IgG1, kappa, V domains shown)
VH: B6 VH
VL: B6 VL with V43I
As for B8, in assay [1], the EC50 is 0.16 nM and the Emax was determined as 14800. Also, in assay [2], the Kd turned out to be 0.437 nM, the off-rate (koff) was 0.00037 s⁻¹ and the kon is 848000 M⁻¹ s⁻¹.

B9: hAb100L1H4 (antibody, human IgG1, kappa, V domains shown)
VH: B6 VH with A109G
VL: B6 VL
For the molecule B9, in assay [1], the EC50 is 0.22 nM and the Emax is 14900. In assay [2], the dissociation constant (Kd) is 0.729 nM, the off-rate (koff) turned out to be 0.000254 s⁻¹ and the association rate constant (kon) was 348000 M⁻¹ s⁻¹.

B10: hAb100L2H1 (antibody, human IgG1, kappa, V domains shown)
VH: B6 VH with A49S
VL: B6 VL with V43I
In assay [1], B10 showed an EC50 of 0.29 nM and an Emax of 14400. In assay [2], this molecule displayed a dissociation constant Kd of 1.1 nM, a koff of 0.000629 s⁻¹ and a kon of 572000 M⁻¹ s⁻¹.

B11: hAb100L1H3 (antibody, human IgG1, kappa, V domains shown)
VH: B6 VH with Y102H
VL: B6 VL
For the molecule B11, in assay [1], it took 0.25 nM to reach a half-maximal effect (EC50) and the Emax was 14900. In assay [2], this molecule showed a Kd of 0.424 nM, a dissociation rate constant (koff) of 0.000352 s⁻¹ and an on-rate constant (kon) of 832000 M⁻¹ s⁻¹.

B12: hAb100L2H4 (antibody, human IgG1, kappa, V domains shown)
VH: B6 VH with A109G
VL: B6 VL with V43I
With B12, in assay [1], a half-maximal response (EC50) required 0.32 nM and the Emax was determined as 13200. In assay [2], the Kd turned out to be 1 nM, the koff was 0.000655 s⁻¹ and the kon is 652000 M⁻¹ s⁻¹.

B13: hAb100L2H3 (antibody, human IgG1, kappa, V domains shown)
VH: B6 VH with Y102H
VL: B6 VL with V43I
As for B13, in assay [1], the concentration for a half-maximal effect (EC50) came out at 0.3 nM and the Emax was 14800. In assay [2], the affinity, expressed as Kd, was 0.664 nM; the koff is 0.000268 s⁻¹; the on-rate constant (kon) worked out at 404000 M⁻¹ s⁻¹.
